The chains are these.
B1: TPR t1 (parent)
chain: GACCAAUCUGCCCUCAGAGCUCGAGAACAUCUUCGGAUGCAGAGGAGGCAGGCUUCGGUGGCGCGAUAGCGCCAACGUCCUCAACCUCCAAUGCAUCCCACCACAUGAUGAUGCCUGAAGAGCCUUGGUUUUUUG

In the series the parent is B1. In words: polymerase ribozyme fitness, log enrichment relative to wild type (log ratio); higher = more active; in vitro selection for triplet polymerase activity. A digest of the protocol: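 Mutant libraries for each subunit of a heterodimeric triplet polymerase ribozyme were made by PCR and then transcribed. Each library underwent one round of in vitro selection in triplicate: annealing with a biotinylated primer, the partner subunit and triplets, frozen incubation at −7 °C, gel excision of extended constructs, streptavidin-bead capture and RT-PCR. Input and output libraries were Illumina-sequenced, and only genotypes with ≥10 input reads and ≥1 read per output were kept. Fitness is the logarithm, base 2, of genotype enrichment over wild-type enrichment, computed from inverse-variance-weighted replicate averages.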
GACCAAUCUGCCCUCAGAGCUCGAGAACAUCUUCGGAUGAUGAGGAGGCCGGCUUCGGUGGAGCGAUAGCGCCAACGUCCUCAACCUCCAAUGCAUCCCACCACAUGAUGAUGCCUGAAGAGCCUUGGUUUUUUG [C40A A41U A50C C62A]: the “polymerase ribozyme fitness (log ratio)” value is -5.7. For GACCAAUCUGCCCUCAGAGCUCGAGAACAUCUUCGGAUGAAGAGGAGGCUGGCUUCGGUGGCGCGAUAGCGCCAACGUCCUCAACCUCCAAUGCAUCCCACCACAUGAUGAUGCCUGAAGAGCCUUGGUUUUUUG [C40A A50U] the value was -1.94; for GACCAAUCUGCCCUCAGAGCUCGAGAACAUCUUCGGAUGAAGAGGAGGCAGGCUUCGGUGGCGCGUUAGCGGCAACGUCCUCAACCUCCAAUGUAUCCCACCACAUGAUGAUGCCUGAAGAGCCUUGGUUUUUUG [C40A A66U C72G C94U], -3.54. For GACCAAUCUGCCCUCAGAGCUCGAGAACAUCUUCGGAUGAAGAGGAGGCAGGCUUCGGUGGCGCGAUAGCGCCAACGUCCUCAGCCUCCAAUGCAUCCCACCAAAUGAUGAUGCCUGAACAGCCUUGGUUUUUUA [C40A A84G C104A G120C G135A] the value was -4.9; for GACCAAUCUGCCCUCAGAGCUCGAGAACAUCUUCGGAUGAAGAGGAGGCAGGCUUCGGUGGCGCGAUAGCGCCAACGUCAUCAACCUCCAAUUCAUCCCAACACAUGAUGAUGCCUGAAGAGCCUUGGUUUUUUG [C40A C80A G93U C101A], -3.95; for GACCAAUCUGCCCUCAGAGCUCGAGAACAUCUUCGGAUGAAGAGGUGGCAGGCUUCGGUGGCGCGAUAUCGCCAACGUCUUCAACCUCCAAUGCAUCCCACCACAUGAUAAGGCCUGAAGAGCCUUGGUUUUUUG [C40A A46U G69U C80U G110A U112G], -7.41. In the case of GACCAAUCUGCCCUCAGAGCUCGAGAACAUCUUCGGAUGAAGAGGAGGCAGGCUUCGGUGGCGCGAUAGCGCCAACGUCCUCAACCUCGAAUGCAUCCCAACACAUGAUGAUGCCUGAAGAGCCUUGGUGUUUUG [C40A C89G C101A U130G], the “polymerase ribozyme fitness (log ratio)” value is -5.66.

GACCAAUCUGCCCUCAGAGCUCGAGAACAUCUUCGGAUGAAGUCGAGGCAGGCUUCGGUGGCGCGAUAGCGCCAACGUCCUCAACCUCCAAUGCAUCCCACCACAUGAUUAUGUCUGAAGAGCCUUGGUUUUUUG [C40A A43U G44C G110U C114U]: the “polymerase ribozyme fitness (log ratio)” value was -5.04. To GACCAAUCUGCCCUCAGAGCUCGAGAACAUCUUCGGAUGAAGAGGAGGCAGGCUUCGGUGGCGCGAUAGCGCCAACGUCCUCAACCUCCAAUGGAUCCCACCACAUGAUGAUGCCUGAAAAGCCUUGGAUUUUUG [C40A C94G G120A U129A] belongs -3.13; to GACCAAUCUGCCCUCAGAGCUCGAGAACAUCUUCGGAUGAAGAGGAGGCAGGCUUCGGUGGCGCGAUAGCGCCAACGUCCUCAACCUUCAAUGCAUCCCACCACAUGAUGAUGCCUGAAGAGCCUUGGUUUUUUG [C40A C88U], -0.447; to GACCAAUCUGCCCUCAGAGCUCGAGAACAUCUUCGGAUGAAGAGGAGGCAGGCUUCGGUGGCGCGAUAGAGCCAACGUCCUCAACCUCCAAUUCAUCCCACCACAUGAUGAUGCCUGAAGAGCCUUGGUUUUUUG [C40A C70A G93U], -1.59. As for GACCAAUCUGCCCUCAGAGCUCGAGAACAUCUUCGGAUGAGGAGGAGGCAGGCUUCGGUGGCGCGAUAGUGCCAACGUCCUCAACCUCCAAUGCAUCCCACCACAUGAUGAUGCCUGAAGAGCCUUGGUUUUUUG [C40A A41G C70U], the “polymerase ribozyme fitness (log ratio)” value was -1.7. To GACCAAUCUGCCCUCAGAGCUCGAGAACAUCUUCGGAUGAAGAGGAGGCAGGCUUCGGUGGCGCGCUAGCGCCAACAUCCUCAACCUCCAAUGCAUCCCACCACAUGAUGAUGCCUGAAGAGCCUUGGUUUUUUG [C40A A66C G77A] belongs -3.74. For GACCAAUCUGCCCUCAGAGCUCGAGAACAUCUUCGGAUGAAGAGGAGGCAGGCUUCGGUGGCGUGAUAGCGCCAACGUCCUCAAACUCCAAUGCAUCCCACAACAUGAUGAGGCCUGAAGAGUCUUGGUUUUUUG [C40A C64U C85A C102A U112G C123U] the value was -5.99; for GACCAAUCUGCCCUCAGAGCUCGAGAACAUCUUCGGAUGAAGAGGAGGAAGGUUUCGGUGGCGCGAUAGCGCCAACGUCCUCAACCUCCAAUGCAUCCCACCACAUGAUAAUGCCUGAAGAGCCUUGGUGUUUUG [C40A C49A C53U G110A U130G], -4.63; for GACCAAUCUGCCCUCAGAGCUCGAGAACAUCUUCGGAUGAAGAGGAGGCAGGCUUUGGUGGCGCGAUAGCGCCAACGUCCUCAACCUCCAAUGCAUCCCACCACAUGAUGAUGCCUGAUGAACCUUGGUUUUUUG [C40A C56U A119U G122A], -1.84. For GACCAAUCUGCCCUCAGAGCUCGAGAACAUCUUCGGAUGAAGAGGAGGCAGGCUUGGGUGGCGCGAUAGCGCCAACGUCCUCAACCGCCAAUGCUUCCCAACACAUGAUGAUGCCUGAAGAGCAUUGGUUUUCUG [C40A C56G U87G A95U C101A C124A U133C] the value was -5.07; for GACCAAUCUGCCCUCAGAGCUCGAGAACAUCUUCGGAUGAAGAGGAGGCAGGCUUCGGUGGCGCGAUAGCGCCAACGUCCUCAACCUCGAAUGCAUCCCACCACAUGAUGAUGCCUGAAGAGCCUUGGUUUUUUG [C40A C89G], -2.81. With GACCAAUCUGCCCUCAGAGCUCGAGAACAUCUUCGGAUGAGAGGGAGGCAGGCUUCGGUGGCGCGAUAGCGCCAACGUCCUCAACCUCCAAUGCAUCCCACCACAUGAUGAUGCCUGAAGAUCCUUGGUUUUUUG [C40A A41G G42A A43G G122U], the “polymerase ribozyme fitness (log ratio)” value is -3.41. GACCAAUCUGCCCUCAGAGCUCGAGAACAUCUUCGGAUGAAGAGGAGGCAGGCUUCGGUGGCGCGAUAGCGCCAACGUCGUCAACCUCCAAUGCAUCCCACCACAUGAAGAUGCCUGAAGAGCCUUGGUUUUAUG [C40A C80G U109A U133A]: the “polymerase ribozyme fitness (log ratio)” value was -7.59. For the variant GACCAAUCUGCCCUCAGAGCUCGAGAACAUCUUCGGAUGAAGAGGAGGCUGGCUUCGGUGGCGCGAUAGCGCCAACGUCCUCAACCUCUAAUGCAUCCCACCACAUGAUGAUGCCUGAAGAGCCUUGGUUUUUUG [C40A A50U C89U], the “polymerase ribozyme fitness (log ratio)” value is -1.95.

Values taken from the RNAGym collection of RNA variant scans (doi:10.1073/pnas.2313332121).
